# B1: Cx43CL_(136-158) M147T peptide (peptide)
# peptide: KYGIEEHGKVKTRGGLLRTYIIS
# notes: connexin43 (Cx43) cytoplasmic loop, residues K136-S158, with the ODDD mutation M147T; ODDD-linked mutation that occurs in patients; No species is named for the synthetic peptides; source: synthetic peptide (LifeTein, 95% purity)
# B2: Cx43CL_(136-158) R148Q peptide (peptide)
# peptide: KYGIEEHGKVKMQGGLLRTYIIS
# notes: connexin43 (Cx43) cytoplasmic loop, residues K136-S158, with the ODDD mutation R148Q; ODDD-linked mutation that occurs in patients; No species is named for the synthetic peptides; source: synthetic peptide (LifeTein, 95% purity)
# B3: Cx43CL_(136-158) T154A peptide (peptide)
# peptide: KYGIEEHGKVKMRGGLLRAYIIS
# notes: connexin43 (Cx43) cytoplasmic loop, residues K136-S158, with the ODDD mutation T154A; ODDD-linked mutation that occurs in patients; No species is named for the synthetic peptides; source: synthetic peptide (LifeTein, 95% purity)
# Target: T1, calmodulin (UniProt P0DP23 1-149)
# T1 construct: calmodulin (CaM); Used 15N-labeled or unlabeled; also called CaM; source: expressed (cloned in pAED4 vector)
# Assay: NMR titration; 15N-HSQC; 15N-labeled CaM at a constant concentration (30–100 μM), unlabeled ligand added (7.5 to 400 μM); KD by nonlinear fitting of chemical shift changes, average of at least six curves
# Conditions: both partners purified
row,Binder,binding result
1,B1,binds
2,B2,binds
3,B3,binds

# — article PMC7602980 (Biomolecules, 2020)
